According to the DeepSol protein solubility set:

test: soluble on expression in E. coli; label from the status in PepcDB or PDB records

Sequence	soluble on expression in E. coli
MSLAPVNIFKAGADEERAETARLTSFIGAIAIGDLVKSTLGPKGMDKILLSSGRDASLMVTNDGATILKNIGVDNPAAKVLVDMSRVQDDEVGDGTTSVTVLAAELLREAESLIAKKIHPQTIIAGWREATKAAREALLSSAVDHGSDEVKFRQDLMNIAGTTLSSKLLTHHKDHFTKLAVEAVLRLKGSGNLEAIHIIKKLGGSLADSYLDEGFLLDKKIGVNQPKRIENAKILIANTGMDTDKIKIFGSRVRVDSTAKVAEIEHAEKEKMKEKVERILKHGINCFINRQLIYNYPEQLFGAAGVMAIEHADFAGVERLALVTGGEIASTFDHPELVKLGSCKLIEEVMIGEDKLIHFSGVALGEACTIVLRGATQQILDEAERSLHDALCVLAQTVKDSRTVYGGGCSEMLMAHAVTQLANRTPGKEAVAMESYAKALRMLPTIIADNAGYDSADLVAQLRAAHSEGNTTAGLDMREGTIGDMAILGITESFQVKRQVLLSAAEAAEVILRVDNIIKAAPRKRVPDHHEGHHHHHH	soluble
MGSDKIHHHHHHMPIVTIGIDLAKNIFAVHGVDEAGKAMLIKPRVPRDQLATLIAQLPACLIGMEACSGAHHWARLFQQHGHTVKLMAPNLVAPYRMSGKRGKNDAADAAAICEAVARPSMRFVPLKDEHQQATLCLHRTRQGFVEERTATYNRLRGLLPEFGVVLPQSPEKLRRYVTEHLDALPGWAKRSIGDLLEHAGHIEDRLLEYDRAIAEIAREDARSKRLMQLRGVGPTTASALLASIGAGRDFRNGRQVAAWIGLTPGQYSSGGKARLGSITKAGDAYLRGLLVNGARAVIANLGEKQDRFSRWVRTLIERRGYWRAAVAIAAKNARLAWASLKYGEDFKLEPAAD	not soluble
MGHHHHHHSHMTGRLDELEKAITTQNCNTKCVTIPSTCSEIWGLSTPNTIDQWDTTGLYSFSEQTRSLDGRLQVSHRKGLPHVIYCRLWRWPDLHSHHELKAIENCEYAFNLKKDEVCVNPYHYQRVETPVLPPVLVPRHTEILTELPPLDDYTHSIPE	soluble
MTGLINAIPATNKDEYKNVGVYIEHRGDELKRPSIEMIGIGKQLARKVNEKLICVVIGDKVDGIAKEVGEYGCDIVLAAESPELAEYRTMPYAEIIGGYIQEYKPNIFLLAATRNGRDLASRIAVKSRTGITADCTVLDIDENRTLLANRPTYGESTLAEILCRNHRPQMATARPGIFPPAEKEKDHKYEVIKKKVDVDKKLLGKQILKFI	not soluble
MSPRSPRHDKILQLVRENGFMPIEELARLLDVTPQTIRRDINQLCEANLLRRYHGGAALGNSVENEDYFARKGKFQSEKAHIADMIARSIPDHASLFMSIGTTIEAVAQALTATHKGLRVITNNIHVASIMSTNPDFTAMITSGTVRASDGGITGVATLDFINQFKVDYAIIGVSGIEPDGSLLDFDYREVRVAQAMMNNARHRYLAADHSKFGRNALVRMGHISEFHTVFTDAAPPEPVTKLLEEHNVRLVLSEALEHHHHHH	soluble
MAHHHHHHMLRNALSCFLEQLELARLTETLPSNIDYAELVAMVQQRLQGAPGKTLGVFEHLRAKEIRLPEPDNPDYAVASMSAPLTVFLFDIEGTTTPLPFVQKVLMPLAESRVEAYMAAHFPADQAFVDLLTAAAERPSSPLAKAQTAYSKAFTDALATSGARDWKDEAANEVTRSDFCAFFHHQIKRGADHAAVKVVQAAIWAEVFAEGKLQSPVFPDVNTFFRFVGGPAMAERTRIALYSSGSVAAQKLVMGHTSYGDLNPFITAYFDPLLVGTKLMPKSYMKIRTLLVEQLDIPPESMHIVFVTDNTSEASAAETSGAVESAILCVRPLNDWITFDTMLSINVPYIMSFTQLMQRNCVVDMAKLVSDTKECIKQHNIS	soluble
EMEPEEERIRYSQRLRGTMRRRYEDDGISDDEIEGKRTFDLEEKLHTNKYNANFVTFMEGKDFNVEYIQRGGLRDPLIFKNSDGLGIKMPDPDFTVNDVKMCVGSRRMVDVMDVNTQKGIEMTMAQWTRYYETPEEEREKLYNVISLEFSHTRLENMVQRPSTVDFIDWVDNMWPRHLKESQTESTNAILEMQYPKVQKYCLMSVRGCYTDFHVDFGGTSVWYHIHQGGKVFWLIPPTAHNLELYENWLLSGKQGDIFLGDRVSDCQRIELKQGYTFVIPSGWIHAVYTPTDTLVFGGNFLHSFNIPMQLKIYNIEDRTRVPNKFRYPFYYEMCWYVLERYVYCITNRSHLTKEFQKESLSMDLELNGLESGNGDEEAVDREPRRLSSRRSVLTSPVANGVNLDYDGLGKTCRSLPSLKKTLAGDSSSDCSRGSHNGQVWDPQCAPRKDRQVHLTHFELEGLRCLVDKLESLPLHKKCVPTGIEDEDALIADVKILLEELANSDPKLALTGVPIVQWPKRDKLKFPTRPKVRVPTIPITKPHTMKPAPRLTPVRPAAASPIVSGARRRRVRCRKCKACVQGECGVCHYCRDMKKFGGPGRMKQSCVLRQCLAPRLPHSVTCSLCGEVDQNEETQDFEKKLMECCICNEIVHPGCLQMDGEGLLNEELPNCWECPKCYQEDSSEKAQKRKMEESDEEAVQAKVLRPLRSCDEPLTPPPHSPTSMLQLIHDPVSPRGMVTRSSPGAGPSDHHSASRDERFKRRQLLRLQATERTMVREKENNPSGKKELSEVEKAKIRGSYLTVTLQRPTKELHGTSIVPKLQAITASSANLRHSPRVLVQHCPARTPQRGDEEGLGGEEEEEEEEEEEDDSAEEGGAARLNGRGSWAQDGDESWMQREVWMSVFRYLSRRELCECMRVCKTWYKWCCDKRLWTKIDLSRCKAIVPQALSGIIKRQPVSLDLSWTNISKKQLTWLVNRLPGLKDLLLAGCSWSAVSALSTSSCPLLRTLDLRWAVGIKDPQIRDLLTPPADKPGQDNRSKLRNMTDFRLAGLDITDATLRLIIRHMPLLSRLDLSHCSHLTDQSSNLLTAVGSSTRYSLTELNMAGCNKLTDQTLIYLRRIANVTLIDLRGCKQITRKACEHFISDLSINSLYCLSDEKLIQKIS	soluble
DIQMTQSPSSLSASVGDRVTITCQASQDITNHLNWYQQKPGKAPKLLIYDASNLETGVPSRFSGRGSGTHFTFTISSLQPADIATYYCQEYDYLPQTFGGGTKVEIK	soluble
MSEGPKKAGVLGSPIAHSRSPQLHLAAYRALGLHDWTYERIECGAAELPVVVGGFGPEWVGVSVTMPGKFAALRFADERTARADLVGSANTLVRTPHGWRADNTDIDGVAGALGAAAGHALVLGSGGTAPAAVVGLAELGVTDITVVARNSDKAARLVDLGTRVGVATRFCAFDSGGLADAVAAAEVLVSTIPAEVAAGYAGTLAAIPVLLDAIYDPWPTPLAAAVGSAGGRVISGLQMLLHQAFAQVEQFTGLPAPREAMTCALAALD	not soluble
SNAMRIGHGFDVHKFGENGSGPLIIGGVRIPYEKGLLAHSDGDVALHAATDALLGAAALGDIGKLFPDTDPAFKGADSRGLLREAYRRILAKGYKLGNLDITIIAQAPKMAPHIPQMRVNLAEDLQCHMDDINVKATTTEQLGFTGRGEGIACEAVVLLVNVEQG	soluble
MGQERLDNANPTLFDSKPRHRPVTGTERDESVEDPIDSWEIFDLIRDINDPEHPYTLEQLNVVQEELIKVFIDEEETFVKVNFTPTIPHCSMATLIGLAIRVKLLRSLHPKVKVSVSITPGSHSTEESINRQLADKERVAAAMENQGLMHAVNECLRVPE	not soluble
MAHHHHHHMHVKHRATGRVVATLPFEPMPTLEDVSDAFIKAESTTATTHTGDLTVPTAYDNAEEDVDGAEEGETMYAVVYDLVTPTAPGDNGDSELAAAVTAAGLLENLPADADGTCNIGETMRKLVELGAAELLTAEPLSVSQARREYNPPEAPGLLRRIVYPASQYSPYRLDRDPLHTDKLSFYRSSTVTASVPSGPPPTSCTGLHALPVWDYGEGGLYTSYFDSYDLSCPMRGPFVRPSAAGKAALVMPLSDEEHHRIFGA	soluble
MRVKTIMTQNPVTITLPATRNYALELFKKYKVRSFPVVNKEGKLVGIISVKRILVNPDEEQLAMLVKRDVPVVKENDTLKKAAKLMLEYDYRRVVVVDSKGKPVGILTVGDIIRRYFAKSEKYKGVEIEPYYQRYVSIVWEGTPLKAALKALLLSNSMALPVVDSEGNLVGIVDETDLLRDSEIVRIMKSTELAASSEEEWILESHPTLLFEKFELQLPNKPVAEIMTRDVIVATPHMTVHEVALKMAKYSIEQLPVIRGEGDLIGLIRDFDLLKVLVKSKA	soluble
MFVQTTNQSNTLSNFILTCAFPAGAPVTNYPPSLSHTSSPGSSVYEASTKTEAVHKLESYQLQASRDPCTIPDELREEMKRMKRQEGAFKTALCLSHKRGKTCIYGEQCKFAHGVHELRCQQAKKNHRNYKTVLCDKFTTTGYCKYGIRCQFIHRSMDATNVTRPIDTADFKLDVQSDLSRAFALDSSSFLPNWHCSALLN	not soluble
MGHHHHHHSHMFKNTFQSGFLSILYSIGSKPLQIWDKKVRNGHIKRITDNDIQSLVLEIEGTNVSTTYITCPADPKKTLGIKLPFLVMIIKNLKKYFTFEVQVLDDKNVRRRFRASNYQSTTRVKPFICTMPMRLDDGWNQIQFNLLDFTRRAYGTNYIETLRVQIHANCRIRRVYFSDRLYSEDELPAEFKLYLPVQNKAKQ	soluble
RAATQVGATTMDRPEWVAVHPDKKHVFCTLTNNKNRGKEGQPVGGPNPREKNNYGQIVRWMPAQGDHTSDVFAWDLYLIAGNPTVHKGTLYAGSENISADNMFNSPDGIGFDTAGRLWIQTDGNYSNQGDFAGQGNNQMLCGDPITGEVKRFLTGPIACEITGLTFSPDHKTMFVG	not soluble
MEESRADGRNPNQLRPFSCTRNPLDRAHGSARWAQGDTIVLAAVYGPKPGTRKGENPEKASIEVVWKPMTGQIGKQEKEYEMTLKRTLQSICLLTVHPNTTTSVILQVVGNDGSLLPCAINACCAALVFAGIPLKHLAVAIGCGVLEDGEVILDTNKAEEQQLKSFAHLVFPNSRKSASSKEPNQKEEDSERGLITSITHGVMSEEDYFSCIERGLAASSRISDFMRTTLQKQAPGDVLEHHHHHH	soluble
MAQAEEINVATVNNGDMIIMQKLSSAWEKETGNKINWIVLEENVLRERVTTDIATNGGQFDIMTIGGYEAPIWGKQGWLAPVDDLGDDYDYADLLDPIKKGLTVDGKLYAVPFYTESSFTLYRKDLFDAAGLKMPDNPTYDQIKDFAAKLTDKSKQQYGICLRGKPGWGENMAFLGTMINTYGGRWFDMDWKPQLTSAPWKKAIADYVALMTSYGPPGAAANGFNENQTLFSSGRCAMWIDATSAAGRVYDPKQSQVADKTGFTRAPVEVTPNGSSWSWSWNLAIPNSTKKLETAKSFVKWATSKAYVKTVGESEGWVAVPPGTRKSTYELPEYKKAAPFADTVLKAIMSADPSKPTKDPVPYTGVQFVAIPEFQSIGTVVGQQIAAALSGQQTVDAALEGAQKQVERDMTRAGYIK	not soluble
MKKIKLGFAPTRRSIFSAPDAVKYRGLTAQRLKELGVDFVDITDINEEGLLYDDKDVDKIVEKFKKEGVDGLMLPHCNFGTEYVCARLAKKLDVPVLLWGPLDERPEPNGVRLRDTQCGLFATGKVLRRFQIPFTYLTNCRLNDPVFERGVKDFLAVCNVVKTFKNIRILQISTRPFDFWTTMCNEGELLEKFNIQLAPVPMTELTEEVKTVREDKEKMEQMIAYIKDTMVIKIKEEEVEMVAALALAMKSLVEKYGCQAAAIQCWNALQTEIGIMPCAANAILNEQGIPVVCETDIHGAVTALLAEAAGMDEKRGFFADWTIRHPDIENGELLQHCGPWPMSVAQEKPELTYPLAFEHPGSLTAEAKHGEVTLCRFDGDNGEYSLLLGNAKGVDGPKGMGTYLWVEVENIKRLEAKIVEGPYIHHCVGIHKNVVPVLYEACKYIGVKPDLYDPIEEDVKAYLRGE	not soluble
MGSDKIHHHHHHMTTVIAGVSGAIGGALARRYLSSYPDRSLIGLCRRPETAPDDLRNHSGVRLMAWDAEDEQRLDVAEFKAVLEASGPVYTVIYAGGLLHDGQMFPEKRLEDIDGRSMMRSYQVNCLGFVSLMQRLAPALRGKHFKRIAAVSAKVGSISDNQLGGWYAYRASKAALNMVVKNLSIELSRRYAPLACVSLHPGTTLSSLSQPFQQSLEQLTVHEPEQTASNLFSVLESLDARDNGRFISWDGSDLPW	not soluble
